Results as given in PMC12173945, “Import mechanism of peroxisomal proteins with an N-terminal signal sequence” (Nature Cell Biology, 2025).

Key:
[1] = system: PEX5–GFP influx into YG hydrogel; experiment: Influx of PEX5–GFP into YG hydrogel in the presence of PEX39 (Fig. 6h); format: biochemical, Xenopus laevis
Protocol: Fig. 6 PEX39 can extract PEX7 from the YG phase. a, YG hydrogels were prepared in a glass-bottomed dish and pre-equilibrated with PEX7–GFP. PEX39 was then added to the buffer and a point-scanning confocal microscope was used to follow the PEX7–GFP fluorescence over time. b, PEX7–GFP signal in the gel over time at the indicated molar ratios of wild-type PEX39 (relative to PEX7). […] The effect of PEX39 on the influx of PEX7–GFP into the gel was then assessed using a point-scanning confocal microscope. g, PEX7–GFP influx in the presence of the indicated molar ratios of wild-type PEX39 (relative to PEX7) with or without a fourfold excess of PTS2 peptide and either PEX5S or PEX5-21. […]
A solution of the purified wild-type YG-domain polypeptide (or the variant lacking the KPWE motif) was concentrated to 2 mM in 50 mM HEPES·NaOH pH 7.8 at RT, 2 M urea and 2 mM TCEP. […] Fluorescence was excited through a 405/488/561/647 quad-band dichroic (Chroma), using a 488-nm solid-state laser (Coherent) and a galvano scanner. […]

[2] = system: PEX5–GFP in YG hydrogel; experiment: YG hydrogel release assay, PEX5–GFP (Fig. 6d); format: biochemical; conditions: fourfold excess of PEX39
Protocol: (§1) YG hydrogels were prepared in a glass-bottomed plate as described earlier and equilibrated for 3 h at RT in Assay Buffer containing 0.5 µM PEX7–GFP or PEX5–GFP with or without PTS2 peptide and receptor at the concentrations specified in the text. Following the initial incubation, the hydrogels were imaged on a Nikon A1R point-scanning confocal system, as described earlier, with a Nikon ×10 0.45 NA Plan Apo air objective, a pinhole dilated to 1.4 Airy units and a pixel size of 2 µm. A solution of purified PEX39 was then spiked into each reaction and the hydrogels imaged every 2 min for an additional 1 h at RT.
(§2) For the PEX7-release assay from YG hydrogels, the total fluorescence within a 30-µm-wide band in the gel extending for 150 µm from the gel edge into the gel was measured at each time point. This distance was sufficient to fully encompass the permeation front of each fluorescent species. The resulting values were then normalized to the total fluorescence inside the gel at the start of the experiment and plotted as a function of time.

[3] = system: PEX7–GFP in YG hydrogel; experiment: YG hydrogel release assay, PEX7–GFP (Fig. 6a-c,e); format: biochemical, yeast
Protocol: as §1, §2

[4] = system: PEX7–GFP influx into YG hydrogel; experiment: Influx of PEX7–GFP into YG hydrogel in the presence of PEX39 (Fig. 6f-i); format: biochemical, yeast; conditions: for Percent PEX7-GFP influx (+ PTS2 peptide + PEX5-21) / Percent PEX7-GFP influx (+ PTS2 peptide + PEX5S) / Percent PEX7-GFP influx: 60 min; for Percent PEX7-GFP influx: PEX7-GFP without PTS2 peptide/PEX5
Protocol: Fig. 6 PEX39 can extract PEX7 from the YG phase. a, YG hydrogels were prepared in a glass-bottomed dish and pre-equilibrated with PEX7–GFP. PEX39 was then added to the buffer and a point-scanning confocal microscope was used to follow the PEX7–GFP fluorescence over time. b, PEX7–GFP signal in the gel over time at the indicated molar ratios of wild-type PEX39 (relative to PEX7). The mean (bold line) and range (shading) of three experiments are shown. c, As in b using a fourfold excess of wild-type (WT) PEX39 or mutants harbouring alanines in place of the APH (∆APH), the RPWE motif (∆RPWE) or both (∆APH + ∆RPWE). d, As in b using PEX7–GFP or PEX5–GFP and a fourfold excess of wild-type PEX39. e, As in b using a fourfold excess of PTS2 peptide and the PEX7-binding chimaeric receptor PEX5-21 (left) or PTS2 peptide and the non-PEX7-binding receptor isoform PEX5S (right). Wild-type PEX39 was titrated as indicated. f, YG hydrogel droplets were incubated with PEX7–GFP in the presence of PEX39. The effect of PEX39 on the influx of PEX7–GFP into the gel was then assessed using a point-scanning confocal microscope. g, PEX7–GFP influx in the presence of the indicated molar ratios of wild-type PEX39 (relative to PEX7) with or without a fourfold excess of PTS2 peptide and either PEX5S or PEX5-21. The mean (bars) and individual values (circles) of three experiments are shown. h, As in g using PEX7–GFP or PEX5–GFP and the indicated molar ratios of wild-type PEX39. i, As in g using wild-type PEX39 or the indicated mutants. Source numerical data are provided. Source data
A solution of the purified wild-type YG-domain polypeptide (or the variant lacking the KPWE motif) was concentrated to 2 mM in 50 mM HEPES·NaOH pH 7.8 at RT, 2 M urea and 2 mM TCEP. Aliquots of 2 µl were then spotted on the bottom of multiple wells of a 96-well glass-bottomed plate (Cellvis, P96-1.5H-N), which was then sealed with a gas-impermeable AlumaSeal II film (Hampton Research, HR8-069) to prevent desiccation and incubated at RT for 24 h. Before each assay, the resulting gels were equilibrated overnight at RT in a 100-fold excess of Assay Buffer (25 mM HEPES·NaOH pH 7.8 at RT, 150 mM NaCl and 1 mM TCEP). A 0.5 µM solution of fluorescently labelled protein in Assay Buffer was then added to the samples, with or without additional components at the concentrations indicated in the text, and incubated at RT. Gels were imaged at the times indicated in the text using a Nikon A1R point-scanning confocal system consisting of an inverted Nikon Eclipse Ti microscope and a Nikon ×20 0.75 NA Plan Apo air objective. The objective was centred on the gel edge and focus was maintained 5 µm above the glass surface using the Nikon Perfect Focus System. Fluorescence was excited through a 405/488/561/647 quad-band dichroic (Chroma), using a 488-nm solid-state laser (Coherent) and a galvano scanner. A 50-nm emission band was collected on a gallium arsenide phosphide detector, using an ET525/50m (525 ± 25 nm) single-band bandpass filter (Chroma) and a pinhole dilated to 0.9 Airy units. Images were acquired using the Nikon NIS-Elements software with a pixel size of 1 µm and a 12-bit digitizer. Imaging parameters were configured to maximize the SNR while avoiding saturation. All samples intended to be compared were imaged using identical acquisition settings.

B1: PEX39 (WT): PEX39 from S. cerevisiae (GenBank accession no. NP_012546.4) (protein)
chain: MAAGGELSYEELLDHILNNKPIPNIVEVPNVTLDEGLASTPSLRPRPRPWEGQLQHQSHQGSLDKPNISLDIDQESLEGMTSLTRLSECYDIQSKLQINDSDNDNDDNNNDNNKGDGNDDDNNTVTANPTAR
modifications: left off: GST, N-terminal, cleaved
Effect on influx of PEX5–GFP into YG hydrogel [1]: did not prevent the influx of PEX5–GFP
Extraction of PEX5–GFP from YG hydrogel [2]: unable to extract PEX5–GFP from the hydrogel
Extraction of PEX7–GFP from YG hydrogel ([3]; PEX39 or mutants added to preloaded hydrogel): rapidly depleted PEX7–GFP from the hydrogel in a dose-dependent manner
Extraction of PEX7–GFP from YG hydrogel, PEX5-21 complex ([3]; with PTS2 peptide and PEX5-21): unable to efficiently extract PEX7–GFP
Extraction of PEX7–GFP from YG hydrogel, PEX5S ([3]; with PTS2 peptide and PEX5S): readily extracted
Effect on influx of PEX7–GFP into YG hydrogel ([4]; PEX7–GFP alone or with PTS2 peptide and PEX5S): blocked the influx of PEX7–GFP alone as well as PEX7–GFP in the presence of a PTS2 peptide and PEX5S
Effect on influx of PEX7–GFP into YG hydrogel, PEX5-21 complex ([4]; PEX7–GFP in complex with PTS2 peptide and PEX5-21): much less inhibitory
Percent PEX7-GFP influx (+ PTS2 peptide + PEX5-21) ([4]; PEX39 1×, replicate 1): 66.880%
Percent PEX7-GFP influx (+ PTS2 peptide + PEX5-21) ([4]; PEX39 1×, replicate 2): 83.899%
Percent PEX7-GFP influx (+ PTS2 peptide + PEX5-21) ([4]; PEX39 1×, replicate 3): 114.523%
Percent PEX7-GFP influx (+ PTS2 peptide + PEX5S) ([4]; PEX39 1×, replicate 1): 23.191%
Percent PEX7-GFP influx (+ PTS2 peptide + PEX5S) ([4]; PEX39 1×, replicate 2): 21.558%
Percent PEX7-GFP influx (+ PTS2 peptide + PEX5S) ([4]; PEX39 1×, replicate 3): 32.481%
Percent PEX7-GFP influx ([4]; PEX39 1×, replicate 1): 49.645%
Percent PEX7-GFP influx ([4]; PEX39 1×, replicate 2): 60.527%
Percent PEX7-GFP influx ([4]; PEX39 1×, replicate 3): 62.401%
Percent PEX7-GFP influx (+ PTS2 peptide + PEX5-21) ([4]; PEX39 2×, replicate 1): 50.795%
Percent PEX7-GFP influx (+ PTS2 peptide + PEX5-21) ([4]; PEX39 2×, replicate 2): 68.223%
Percent PEX7-GFP influx (+ PTS2 peptide + PEX5-21) ([4]; PEX39 2×, replicate 3): 111.257%
Percent PEX7-GFP influx (+ PTS2 peptide + PEX5S) ([4]; PEX39 2×, replicate 1): 5.154%
Percent PEX7-GFP influx (+ PTS2 peptide + PEX5S) ([4]; PEX39 2×, replicate 2): 5.013%
Percent PEX7-GFP influx (+ PTS2 peptide + PEX5S) ([4]; PEX39 2×, replicate 3): 4.961%
Percent PEX7-GFP influx ([4]; PEX39 2×, replicate 1): 14.576%
Percent PEX7-GFP influx ([4]; PEX39 2×, replicate 2): 15.433%
Percent PEX7-GFP influx ([4]; PEX39 2×, replicate 3): 14.730%
Percent PEX7-GFP influx (+ PTS2 peptide + PEX5-21) ([4]; PEX39 4×, replicate 1): 53.842%
Percent PEX7-GFP influx (+ PTS2 peptide + PEX5-21) ([4]; PEX39 4×, replicate 2): 47.057%
Percent PEX7-GFP influx (+ PTS2 peptide + PEX5-21) ([4]; PEX39 4×, replicate 3): 58.495%
Percent PEX7-GFP influx (+ PTS2 peptide + PEX5S) ([4]; PEX39 4×, replicate 1): 2.693%
Percent PEX7-GFP influx (+ PTS2 peptide + PEX5S) ([4]; PEX39 4×, replicate 2): 2.263%
Percent PEX7-GFP influx (+ PTS2 peptide + PEX5S) ([4]; PEX39 4×, replicate 3): 2.329%
Percent PEX7-GFP influx ([4]; PEX39 at 4× molar ratio, replicate 1): 7.357%
Percent PEX7-GFP influx ([4]; PEX39 at 4× molar ratio, replicate 2): 5.802%
Percent PEX7-GFP influx ([4]; PEX39 at 4× molar ratio, replicate 3): 7.696%
